{"source": "patent US20240016923A1", "about": "(UNIVERSITY OF MARYLAND COLLEGE PARK, published 2024)", "binders": {"B1": {"name": "secreted E1E2 with c-Fos/c-Jun leucine zipper scaffold (sE1E2.LZ) (other)", "chain 1": "YQVRNSSGLYHVTNDCPNSSIVYEAADAILHTPGCVPCVREGNASRCWVAVTPTVATRDGKLPTTQLRRHIDLLVGSATLCSALYVGDLCGSVFLVGQLFTFSPRRHWTTQDCNCSIYPGHITGHRMAWDMMMNWSPTAALVVAQLLRIPQAIMDMIAPGGRIARLEEKVKTLKAQNSELASTANMLREQVAQLKQKVMNYRRRRRR", "chain 2": "ETHVTGGSAGRTTAGLVGLLTPGAKQNIQLINTNGSWHINSTALNCNESLNTGWLAGLFYQHKFNSSGCPERLASCRRLTDFAQGWGPISYANGSGLDERPYCWHYPPRPCGIVPAKSVCGPVYCFTPSPVVVGTTDRSGAPTYSWGANDTDVFVLNNTRPPLGNWFGCTWMNSTGFTKVCGAPPCVIGGVGNNTLLCPTDCFRKHPEATYSRCGSGPWITPRCMVDYPYRLWHYPCTINYTIFKVRMYVGGVEHRLEAACNWTRGERCDLEDRDRSELSPLLLSTTQWQVLPCSFTTLPALSTGLIHLHQNIVDVQYLYGVGSSIASWAIPGGLTDTLQAETDQLEDKKSALQTEIANLLKEKEKLEFILAAYHHHHHH", "notes": "It is written here as the two chains expected after furin cleavage"}, "B2": {"name": "HC84.24 (antibody, V domains shown)", "VH": "QVQLVQSGAEVKKPGSSVKVSCKASGGTFSLNSLSWVRQAPGQGLEWMGTIIPIVGIANYAQKFQGRVTITADKSTGTAYMDLSSLSDDTAVYFCARELYSGTGFFRLEALDYWGQGTLVTVSS", "VL": "DIQMTQSPATLSLSPGERATLSCRASQSVSSYLAWYQQKPGQAPRLLIYDASNRATGIPARFIAGGSGTDFTLTISSLEPEDFAVYYCQQYGSPQTFGQGTKLEIKR"}}, "key": {"[1]": {"molecular_target": "T1, CD81 large extracellular loop (CD81-LEL) (UniProt P60033 113-201)", "T1 construct": "domain: large extracellular loop (LEL); also called CD81 receptor", "T1 sequence (looked up)": "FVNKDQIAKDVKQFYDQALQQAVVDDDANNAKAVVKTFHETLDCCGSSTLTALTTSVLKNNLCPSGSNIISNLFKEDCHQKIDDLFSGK", "test": "SPR (Biacore T200); sE1E2.LZ amine-coupled to a CM5 chip, CD81-LEL injected; 1:1 model"}, "[2]": {"molecular_target": "T1, CD81 large extracellular loop (CD81-LEL)", "test": "SPR (Biacore T200), antigen amine-coupled on CM5 chip, CD81-LEL injected, single cycle kinetics, 1:1 model"}, "[3]": {"molecular_target": "T2, membrane-bound E1E2 (mbE1E2) (Hepatitis C virus, isolate H77C …, UniProt P27958 192-746)", "T2 construct": "Extracted from Expi293 membranes with detergent and purified; a heterogeneous mix of oligomers", "test": "dose-dependent ELISA, antigen captured by GNA lectin"}, "[4]": {"molecular_target": "B1", "test": "dose-dependent ELISA, antigen captured by GNA lectin"}, "c-Fos peptide": {"molecular_target": "T3, c-Fos peptide (human)", "T3 construct": "Synthetic biotinylated peptide", "test": "circular dichroism spectroscopy of mixed peptides"}}, "note": "Ends that are not written are not given here."}
{"binder": "B1", "values": [{"measurement": "koff", "setting": "[1]", "value": 0.00067, "unit": "s⁻¹"}, {"measurement": "kon", "setting": "[1]", "value": 63000, "unit": "M⁻¹ s⁻¹"}, {"measurement": "Kd", "setting": "[2]", "value": 10.8, "unit": "nM"}]}
{"binder": "B2", "values": [{"measurement": "Kd", "setting": "[3]", "value": 0.5, "unit": "nM"}, {"measurement": "Kd", "setting": "[4]", "value": 1.3, "unit": "nM"}]}
{"binder": "RIARLEEKVKTLKAQNSELASTANMLREQVAQLKQKVMNY (also: biotinylated, position not given here, Synthetic biotinylated peptide)", "note": "[c-Jun peptide]", "values": [{"measurement": "binding result", "setting": "c-Fos peptide", "value": "binds"}]}
